In PMC12540671:
Where two headings read alike, the source gives them in different places.

How the values were obtained:
[1] = molecular target: ATM (ataxia-telangiectasia mutated) kinase (mouse (endogenous in cerebellar tissue)) (UniProt Q62388); test: non-reducing SDS-PAGE and immunoblot; ex vivo mouse cerebellar tissue culture exposed to glargine (100 nM, 2 h); proteins denatured in 2% SDS without boiling, separated under nonreducing conditions at 4 °C; the NOX4 antagonist GLX7013114 or shRNA impeded the insulin-induced dimerization
[2] = molecular target: PKM2 (pyruvate kinase M2) (mouse (endogenous in cerebellar tissue)) (UniProt P52480); test: cross-linking; 5 mM disuccinimidyl suberate (DSS), 30 min, room temperature, quenched with Tris, then immunoblot for PKM2; mouse cerebellar tissue of Atm-WT and Atm-KO, also with TEPP-46
[3] = molecular target: PKM2 (pyruvate kinase M2) (mouse (endogenous in cerebellar tissue)) (UniProt P52480); test: as above; remark: listed apart in the source

Chain of PKM2 (pyruvate kinase M2), P52480 1-531 (enzyme; other documents disagree on this pair) (P52480 whole entry): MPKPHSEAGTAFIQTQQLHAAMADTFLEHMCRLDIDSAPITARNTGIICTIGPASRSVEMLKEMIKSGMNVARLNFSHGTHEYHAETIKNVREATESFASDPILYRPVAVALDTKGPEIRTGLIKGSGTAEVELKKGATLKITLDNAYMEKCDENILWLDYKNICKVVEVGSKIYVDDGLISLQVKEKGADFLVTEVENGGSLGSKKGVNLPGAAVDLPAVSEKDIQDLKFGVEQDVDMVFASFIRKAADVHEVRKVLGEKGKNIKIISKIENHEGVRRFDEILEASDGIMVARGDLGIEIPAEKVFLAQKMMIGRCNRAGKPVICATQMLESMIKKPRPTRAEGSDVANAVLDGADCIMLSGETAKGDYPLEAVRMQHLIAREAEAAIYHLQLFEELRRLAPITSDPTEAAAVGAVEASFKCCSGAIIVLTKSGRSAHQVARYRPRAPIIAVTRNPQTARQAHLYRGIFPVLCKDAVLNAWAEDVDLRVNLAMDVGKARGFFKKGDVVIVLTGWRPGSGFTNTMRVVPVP

Row | Substance | stoichiometry N [1] | stoichiometry N [2] | stoichiometry N [3]
1 | ATM (ataxia-telangiectasia mutated) kinase, Q62388 1-3066 | 2 |  | 
2 | PKM2 (pyruvate kinase M2), P52480 1-531 (enzyme; other documents disagree on this pair) |  | 4 | 2
